Assay results: patent publication US5705154, “Humanized monoclonal antibodies against human interleukin-4” (Schering Corporation, dated 1998)
Values joined by “and” are separate entries in the source; they are usually repeats but may differ in a detail not shown here. Equal values may be shown once.

Experiments:
[1] = biological target: T1, human interleukin-4 (human, UniProt P05112, radioiodinated (125I, IODOGEN method) in the binding and competition assays; unlabelled in the reporter gene assay)
[2] = biological target: T1, human interleukin-4; remark: listed apart in the source
[3] = biological target: T1, human interleukin-4; test: inhibition of 125I-hIL-4 binding to the human IL-4 receptor on Jijoye CJ cells, 4 C
Method: The humanized antibodies were assayed for the ability to inhibit the binding of radiolabelled hIL-4 to the recombinant human IL-4 receptor expressed on Jijoye CJ cells in microtiter plates. Briefly, the humanized antibodies were serially diluted in cell growth medium at protein concentrations of from 8.6 nM to 4 pM. Rat antibody 25D2 was similarly diluted and used as a positive control. Jijoye CJ cells (10^5 cells) and 44 pM ^125I-hIL-4 were then added to each well (200 μl final volume per well) and the plates were incubated for 2 hours at 4° C.
Humanized antibodies h25D2-1 and h25D2-4 antibodies were assayed as described above for the ability to inhibit binding of radiolabeled hIL-4 to recombinant hIL-4 receptors expressed on the Jijoye CJ cell line.

[4] = biological target: T1, human interleukin-4; test: plate competition assay at room temperature; free antibody against immobilized 25D2 as competitor for 125I-hIL-4
Method: (§1) Immunosorb plates were coated with a 60 ng/ml solution of the rat 25D2 antibody diluted in PBS (100 μl/well) for at least 16 hours at 4° C. The wells were then blocked with Blocking buffer (3% BSA in PBS) for 4 hours at room temperature. Fifty microliters of 2-fold serially diluted competing antibodies plus the appropriate amount of ^125I-hIL-4 ([…] total volume) were added to each well, and the plates were incubated at room temperature for 16–24 hours. The plates were washed 3 times with potassium phosphate, pH 7.4, plus 0.05% Tween 20. The wells were aspirated dry, and 75 μl of Solubilization buffer (0.1N NaOH/1% SDS) was added to each well and incubated for 30 minutes at room temperature. The solution was removed from each well and counted in an LKB gamma counter.
To further characterize humanized antibody variants h25D2-1 and h25D2-4, competitive binding assays with the humanized antibodies and rat antibody 25D2 were performed as described above.

[5] = biological target: T1, human interleukin-4; test: plate competition assay at room temperature (about 22 C); free antibody against immobilized 25D2 as competitor for 125I-hIL-4
Method: as §1
A plate competition assay was carried out as described above using ^125I-hIL-4, immobilized rat antibody 25D2, and varying levels of free antibodies 25D2, h25D2-1 or h25D2-9.

[6] = biological target: T1, human interleukin-4; test: apparent Kd, Scatchard analysis; antibody from COS conditioned medium captured on anti-human IgG4 Fc plates, 125I-hIL-4, room temperature
Method: The wells were washed and incubated with ^125I-hIL-4 at concentrations between 4,000 and 2 pM in final volumes of 100 μl. All assays were performed in triplicate, and the background binding was determined by using a 1000-fold molar excess of unlabelled hIL4 in control wells. After incubation for 2 hours at room temperature, the wells were washed, the protein was solubilized in 75 μl of Solubilization buffer [0.1N NaOH/1% sodium dodecylsulfate (SDS)], and the solution was counted in an LKB gamma counter. Concentrations of bound and free hIL4 were determined, and the affinities of the antibodies were determined by Scatchard plot analysis [Berzofsky et al., in *Fundamental Immunology*, 1984, Paul, E. E., Ed., Raven Press, N.Y., N.Y., pp. 595–644].
All five variants of the humanized heavy chain gene were independently co-transfected into COS 7 cells with the pKM20 light chain vector. The serum-free conditioned medium was harvested after 72 hours and concentrated.

[7] = biological target: T1, human interleukin-4; test: apparent Kd, Scatchard analysis; purified antibody captured on anti-rat IgG Fc plates, 125I-hIL-4, room temperature

Binder | IC50, inhibition of human growth hormone expression under the germline epsilon promoter in Jijoye C12 cells with 1 ng/mL hIL-4 [1] | concentration for fifty percent inhibition in the germline epsilon reporter assay, Jijoye C12 cells (FIG. 3), against 25D2 and h25D2-9 [2] | IC50 [3] | fold less effective than antibody 25D2 in competition [4] | concentration for fifty percent inhibition relative to antibody h25D2-9 [5] | Kd [6] | Kd [7]
humanized antibody h25D2-1 (antibody, V domains shown) VH: EVQLLESGGGLVQPGGSLRLSCAASGFSFRSYWMTWVRQAPGKGLEWVASISISGDNTYYPDSVRGRFTISRNDSKNTLYLQMNGLQAEVSAIYYCARDPYYFSGHYFDFWGQGTLVTVSS VL: DIQMTQSPSSLSVSVGDRVTITCKASQNIYKNLAWYQQKPGLAPKLLIYNAKSLETGVPSRFSGSGSGTDFTFTISSLQPEDIATYYCQQYYSGWTFGQGTKVEVKR | 0.12 nM | 5 fold | 0.5 nM and 1 nM | 3 fold | 2 fold | 4 nM | 
rat monoclonal antibody 25D2 (antibody, V domains shown) VH: ELQLVESGGGLVQPGRSLKLSCVASGFSFRSYWMTWVRQAPGKGLEWIASISISGDNTYYPDSVRGRFTISRDDAKSILYLQMNSLRSEDTATYYCVRDPYYFSGHYFDFWGQGVMVTVSS VL: DIQMTQSPSLLSASVGDRVTLNCKASQNIYKNLAWYQQKLGEAPKFLIFNAKSLETGVPSRFSGSGSGTDFTLTISSLQPEDVATYFCQQYYSGWTFGGGTKLELKR | 0.02 to 0.04 nM |  | 0.5 to 1 nM and 1 nM |  |  |  | 1 nM
